Assay results from patent US20180044385A1.

Target: Fab with lambda light chain (Cλ)
Assay: ELISA; reference is the Fab with kappa light chain

EC50 ratio, Cλ Fab over CK Fab: 7 fold
Substance: wild-type Protein-G (C2 domain / Fab binding domain)
